Measurements taken from patent US7303876B2 (Applera Corporation, priority 2000, dated 2007).

Columns and labels:
Proteinase K = biological target: T1, Proteinase K (Parengyodontium album, UniProt P06873); experiment: Effect of surfactants on Proteinase K digestion of dye-labeled casein substrate; type: biochemical; conditions: water, 0 minutes incubation, ambient temperature
T1 construct: purchased Ambion 2546
Method: To test the effect of cationic surfactants on the activity of Proteinase K, a series of reaction compositions were prepared as follows. Reaction compositions comprised: Casein BoDipy conjugate (1 μg, 10 ng/μL), 10 mM Tris, pH 8, 20 mM CaCl2, 1% surfactant (shown in Table 2 below) and a dilution series of Proteinase K at concentrations of 20 μg/ml, 5 μg/ml, 1.25 μg/ml, 0.31 μg/ml, 0.078 μg/ml, 0.02 μg/ml and 0.005 μg/ml. […] Reaction tubes were incubated at 60° C. in a 96-well optical plate (MicroAmp® Optical 96-Well Reaction Plate, Applied Biosystems) and the amount of released fluorescence was measured at the indicated time points using an ABI Prism 7700.

slices of liver = experiment: Maceration of liver slices by reaction compositions at 65° C.; conditions: 65° C.; for maceration of liver slice: 1 mg/ml Proteinase K, No Additives
Method: Initially, a series of reaction compositions were analyzed for their ability to disaggregate a biological sample, e.g., slices of liver. These reaction compositions comprised 100 mM Tris, pH 8.0, 20 mM dithiothreitol (DTT), and optionally,1 mg/ml Proteinase K, surfactants (e.g., cationic, nonionic and anionic detergents), chaotropes, or the additive 1-methyl-2-pyrollidinone (Sigma). Each reaction compositions was placed in a tube with a slice of liver and then incubated at 65° C. The tubes were observed periodically to determine which reaction compositions were able to efficiently macerate the sample.

[1] = test system: BoDipy-labeled Casein Conjugate; experiment: Proteinase K digestion of BoDipy-labeled Casein Conjugate (fluorescence); type: biochemical; conditions: one hour, 60° C.
Source text: An assay was developed to measure the activity of Proteinase K with BoDipy-labeled Casein Conjugate (Enz Check Protease Assay Kit, Product number E6638; Molecular Probes, Eugene, Oreg.). The concentration of fluorescent BoDipy moieties in this derivatized conjugate is sufficiently high so that when the protein is intact, the fluorescence of individual moieties is quenched. Upon digestion of the derivatized casein by a protease, however, peptides containing a lower number of BoDipy dye molecules are released, resulting in an increase in fluorescence. To determine an initial dynamic range for an assay, BoDipy-labeled Casein was digested for one hour with a decreasing concentration of Proteinase K as follows. […] Following a one hour incubation at 60° C. with mixing, 100 μL aliquots were transferred to a 96-well optical plate (MicroAmp® Optical 96-Well Reaction Plate, Applied Biosystems, Foster City, Calif.) and the fluorescence was measured in an ABI Prism 7700 spectrophotometer (Applied Biosystems). The background fluorescence was determined by incubating the substrate in buffer without Proteinase K.

B1: Proteinase K: protease (subtilisin), Ambion (protein, UniProt P06873 106-384, looked up)
Proteinase K: AAQTNAPWGLARISSTSPGTSTYYYDESAGQGSCVYVIDTGIEASHPEFEGRAQMVKTYYYSSRDGNGHGTHCAGTVGSRTYGVAKKTQLFGVKVLDDNGSGQYSTIIAGMDFVASDKNNRNCPKGVVASLSLGGGYSSSVNSAAARLQSSGVMVAVAAGNNNADARNYSPASEPSVCTVGASDRYDRRSSFSNYGSVLDIFGPGTSILSTWIGGSTRSISGTSMATPHVAGLAAYLMTLGKTTAASACRYIADTANKGDLSNIPFGTVNLLAYNNYQA
proteolytic activity of Proteinase K without surfactant (Proteinase K): high proteolytic activity
maceration of liver slice (slices of liver; 2-5 hr): 0%
maceration of liver slice (slices of liver; 16-24 hr): 75%
ability to macerate the liver sample (in words) (slices of liver): effectively digest the liver tissue, but only after extended incubation
lowest Proteinase K concentration with released fluorescence detected [1]: 50 ng/mL
fluorescence signal plateau ([1]; 10 μg/ml BoDipy-labeled Casein Conjugate): around 30,000 fluorescence units
